Reference: paper PMC10907249

Target: HLA-A*02:01 refolded with the photocleavable peptide photoKV9, UV-exposed (A*02/photoKV9)
Assay: fluorescence polarisation

US11 peptide S28V_WT (amino acids 17 to 44) (from UniProt P09727 17-44)
IC50: 3.83 µM
